What was measured:
[1] = Competitive ELISA, relative CTS specificity, CINO as competitor; assay type: binding; details: competition with immobilized MBG-BSA; normalized to MBG = 100%
Procedure: (§1) The specificity (relative affinity) of anti-MBG antibodies for MBG relative to various cardiotonic steroids (CTSs) was determined in a competitive ELISA. Each anti-MBG antibody was tested for its binding to immobilized MBG in the presence of free MBG, resibufogenin (RBG), cinobufagin (CINO), ouabain (OUB) or digoxin (DIG) as a competitor. A constant amount of an anti-MBG antibody (typically 1-5 μg/mL) and varying concentrations of each CTS (from 10^−12M to 10^−5M) were pre-incubated before being added to the MBG-BSA-coated wells. After washing of the wells, an anti-human Fc, HRP-conjugated secondary antibody (at 1:5000 dilution) was added to the wells and incubated at 37° C. for 1 hr. After washing of the wells, an appropriate HRP reagent (e.g., TMB ultra, Thermo Fisher) was added to the wells. OD at 450 nm was measured by a microplate reader. MBG at 10 μM was assumed to be 100% competed, and MBG at 1 pM was assumed to be 0% competed. The data was plotted as a titration of antibody-antigen binding relative to free CTS concentration in the competition reaction to determine the free CTS concentration (μM) giving 50% maximal binding of antibody to immobilized MBG. The relative specificity of an antibody for a CTS was normalized to MBG=100%.

[2] = ELISA avidity estimate on MBG-KLH; assay type: binding; details: wells coated with 2 μg/ml MBG-KLH; IgG
Procedure: (§2) The avidity of anti-MBG antibodies for MBG was estimated in an ELISA. Wells of a microtiter plate were coated with 2 μg/ml of either MBG-bovine serum albumin (BSA) or MBG-keyhole limpet hemocyanin (KLH). The wells were then blocked with 1% BSA. A test IgG antibody at varying concentrations (typically from about 0.0001 nM to about 25 nM) was added to the wells. The test IgG bound to immobilized MBG was detected with an anti-human Fc, horseradish peroxidase (HRP)-conjugated secondary antibody (Jackson ImmunoResearch). After washing of the wells, an appropriate HRP reagent (e.g., TMB ultra, Thermo Fisher) was added to the wells. Optical density (OD) at 450 nm was measured by a microplate reader. The concentration of test antibody at the midpoint of the binding curve is an estimate of avidity for MBG.

[3] = Competitive ELISA, relative CTS specificity, OUB as competitor; assay type: binding; details: competition with immobilized MBG-BSA; normalized to MBG = 100%
Procedure: as §1

[4] = Competitive ELISA, relative CTS specificity, RBG as competitor; assay type: binding; details: competition with immobilized MBG-BSA; normalized to MBG = 100%
Procedure: as §1

[5] = ELISA avidity estimate on MBG-BSA; assay type: binding; details: wells coated with 2 μg/ml MBG-BSA; IgG
Procedure: as §2

[6] = tested on: pregnant Sprague-Dawley rats; assay: DOCA/saline rat model of pre-eclampsia; assay type: in vivo; details: tail cuff; baseline; antibodies 2.2 mg/kg/d i.p. days 16-18 in PDS (DOCA/saline) rats; MBG 7.65 μg/kg/d in normal pregnant rats (NPM); N = 10

B1: H3L2: humanized anti-MBG antibody, VH H3 (SEQ ID NO: 11) with VL L2 (SEQ ID NO: 13) (antibody, V domains shown)
VH: EVQLQESGPGLVKPSETLSLTCTVSGDSITSGYWNWIRQPPGKGLEYMGYISYSGTTYYNPSLKSRITISRDTSKNQYSLKLSSVTAADTAVYYCARARYGYGFDYWGQGTLVTVSS
VL: DVVMTQSPLSLPVTLGQPASISCRSSQSIVHSNRNTYLEWYQQRPGQSPRLLIYKVSNRFSGVPDRFSGSGSGTDFTLKISRVEAEDVGVYYCFQGSHVPLTFGGGTKVEIK
modifications: Humanized VH sequence; Humanized VL sequence
With B1 as the molecule, how does the “Rel. CTS Specificity as % of MBG Binding: CINO” value [1] read?
The value was 0%.

And the “Estimated avidity (KA) (antibody concentration at 50% maximal binding to antigen, or EC50), Antigen 2 (MBG-KLH)” value [2]?
The value was 1.5 nM.

And the “Rel. CTS Specificity as % of MBG Binding: OUB” value [3]?
The value was 0%.

What about the “Rel. CTS Specificity as % of MBG Binding: RBG” value [4] of the same molecule?
Its value is 0%.

And the “Estimated avidity (KA) (antibody concentration at 50% maximal binding to antigen, or EC50), Antigen 1 (MBG-BSA)” value [5]?
Its value is 0.6 nM.

What about the “Blood Pressure-Initial” value [6] of the same molecule?
Its value is 104 ± 5 mm Hg.

Source: patent publication US10654925B2, “Anti-marinobufagenin antibodies and uses thereof” (priority 2018, dated 2020)
